Measurements as given in patent US10087225B2, “Formulation of MK2 inhibitor peptides” (MOERAE MATRIX, INC., priority 2015, dated 2018).

Experiments:
Test in all cases: Kinase Profiling Assay
SGK(h) = biological target: T1, SGK(h) (Homo sapiens, UniProt O00141); format: biochemical
T1 sequence (O00141 1-431): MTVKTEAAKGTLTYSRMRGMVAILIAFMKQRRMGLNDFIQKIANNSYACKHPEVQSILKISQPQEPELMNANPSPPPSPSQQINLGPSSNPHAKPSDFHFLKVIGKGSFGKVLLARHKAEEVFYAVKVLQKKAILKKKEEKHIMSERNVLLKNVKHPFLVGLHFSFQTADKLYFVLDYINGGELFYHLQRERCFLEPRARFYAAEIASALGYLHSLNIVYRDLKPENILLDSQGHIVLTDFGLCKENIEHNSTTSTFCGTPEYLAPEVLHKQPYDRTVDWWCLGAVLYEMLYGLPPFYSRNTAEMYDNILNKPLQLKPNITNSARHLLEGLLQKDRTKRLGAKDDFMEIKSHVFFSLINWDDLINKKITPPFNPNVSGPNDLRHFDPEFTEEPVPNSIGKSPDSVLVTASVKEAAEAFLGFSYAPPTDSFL

BrSK2(h) = biological target: T2, BrSK2(h) (Homo sapiens, UniProt Q8IWQ3); format: biochemical
T2 sequence (Q8IWQ3 1-736): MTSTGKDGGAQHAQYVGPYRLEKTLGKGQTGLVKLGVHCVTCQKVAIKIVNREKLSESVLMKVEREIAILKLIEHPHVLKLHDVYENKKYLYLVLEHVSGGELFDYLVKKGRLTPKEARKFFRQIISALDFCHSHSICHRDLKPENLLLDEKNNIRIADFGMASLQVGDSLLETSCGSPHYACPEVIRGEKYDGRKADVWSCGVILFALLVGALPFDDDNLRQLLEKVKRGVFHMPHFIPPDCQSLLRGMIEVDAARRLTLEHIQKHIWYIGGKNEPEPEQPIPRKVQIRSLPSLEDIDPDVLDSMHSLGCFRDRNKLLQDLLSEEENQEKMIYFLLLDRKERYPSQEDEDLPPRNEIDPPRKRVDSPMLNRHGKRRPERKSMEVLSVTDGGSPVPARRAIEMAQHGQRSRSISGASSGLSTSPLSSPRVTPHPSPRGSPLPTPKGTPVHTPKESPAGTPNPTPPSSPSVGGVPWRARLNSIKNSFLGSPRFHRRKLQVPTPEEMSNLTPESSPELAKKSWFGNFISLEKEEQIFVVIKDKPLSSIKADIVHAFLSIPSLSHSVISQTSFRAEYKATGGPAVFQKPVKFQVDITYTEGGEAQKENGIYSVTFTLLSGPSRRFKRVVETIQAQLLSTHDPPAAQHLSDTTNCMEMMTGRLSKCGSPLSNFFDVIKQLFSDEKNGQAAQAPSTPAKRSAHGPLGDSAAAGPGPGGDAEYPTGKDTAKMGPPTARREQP

MAPK1(h) = MAPK1(h) (Homo sapiens, UniProt P27361); format: biochemical
Src(1-530)(h) = biological target: T3, Src(1-530)(h) (Homo sapiens, UniProt P12931); format: biochemical; conditions: 100 μM
T3 construct: Src(1-530)(h)

MSK2(h) = MSK2(h) (Homo sapiens, UniProt O75676); format: biochemical; conditions: 100 μM
Fer(h) = Fer(h) (Homo sapiens, UniProt P16591); format: biochemical; conditions: 100 μM
PhKγ2(h) = biological target: T4, PhKγ2(h) (Homo sapiens, UniProt P15735); format: biochemical; conditions: 100 μM
T4 sequence (P15735 1-406): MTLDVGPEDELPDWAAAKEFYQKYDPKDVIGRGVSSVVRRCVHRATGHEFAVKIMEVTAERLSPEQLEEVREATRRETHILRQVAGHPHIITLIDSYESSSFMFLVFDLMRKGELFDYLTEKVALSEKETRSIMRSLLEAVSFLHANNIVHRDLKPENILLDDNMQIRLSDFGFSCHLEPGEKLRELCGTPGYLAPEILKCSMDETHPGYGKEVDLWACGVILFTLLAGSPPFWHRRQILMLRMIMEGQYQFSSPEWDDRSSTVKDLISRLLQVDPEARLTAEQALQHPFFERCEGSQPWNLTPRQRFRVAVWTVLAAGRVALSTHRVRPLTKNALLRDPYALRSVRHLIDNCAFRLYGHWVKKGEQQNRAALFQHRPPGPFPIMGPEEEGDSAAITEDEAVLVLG

SAPK2b(h) = SAPK2b(h) (Homo sapiens, UniProt Q15759); format: biochemical; conditions: 100 μM
FGFR2(h) = FGFR2(h) (Homo sapiens, UniProt P21802); format: biochemical; conditions: 100 μM
PDGFRβ(h) = PDGFRβ(h) (Homo sapiens, UniProt P09619); format: biochemical; conditions: 100 μM
CaMKIIβ(h) = CaMKIIβ(h) (Homo sapiens, UniProt Q13554); format: biochemical; conditions: 100 μM
Syk(h) = Syk(h) (Homo sapiens, UniProt P43405); format: biochemical; conditions: 100 μM
PAK5(h) = PAK5(h) (Homo sapiens, UniProt Q9P286); format: biochemical; conditions: 100 μM
p70S6K(h) = format: biochemical, human; conditions: 100 μM
CaMKIIγ(h) = CaMKIIγ(h) (Homo sapiens, UniProt Q13555); format: biochemical; conditions: 100 μM
Sequence of CaMKIIγ(h) (Q13555 whole entry): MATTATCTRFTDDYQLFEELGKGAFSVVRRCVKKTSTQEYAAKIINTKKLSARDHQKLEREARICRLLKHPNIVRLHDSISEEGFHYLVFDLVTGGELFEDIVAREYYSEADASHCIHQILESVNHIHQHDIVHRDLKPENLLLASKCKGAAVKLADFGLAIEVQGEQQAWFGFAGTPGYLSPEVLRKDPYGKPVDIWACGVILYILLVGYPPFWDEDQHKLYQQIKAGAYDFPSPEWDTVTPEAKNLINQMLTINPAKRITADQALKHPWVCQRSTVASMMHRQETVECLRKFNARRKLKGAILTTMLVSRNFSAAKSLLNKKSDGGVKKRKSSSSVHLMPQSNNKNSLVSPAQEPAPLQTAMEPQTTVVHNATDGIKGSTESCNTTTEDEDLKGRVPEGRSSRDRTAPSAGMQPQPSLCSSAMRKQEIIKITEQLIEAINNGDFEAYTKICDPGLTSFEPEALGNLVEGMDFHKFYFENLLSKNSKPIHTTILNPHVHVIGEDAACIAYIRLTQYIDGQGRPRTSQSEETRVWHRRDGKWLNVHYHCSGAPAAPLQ

Sequence of SAPK2b(h) (Q15759 whole entry): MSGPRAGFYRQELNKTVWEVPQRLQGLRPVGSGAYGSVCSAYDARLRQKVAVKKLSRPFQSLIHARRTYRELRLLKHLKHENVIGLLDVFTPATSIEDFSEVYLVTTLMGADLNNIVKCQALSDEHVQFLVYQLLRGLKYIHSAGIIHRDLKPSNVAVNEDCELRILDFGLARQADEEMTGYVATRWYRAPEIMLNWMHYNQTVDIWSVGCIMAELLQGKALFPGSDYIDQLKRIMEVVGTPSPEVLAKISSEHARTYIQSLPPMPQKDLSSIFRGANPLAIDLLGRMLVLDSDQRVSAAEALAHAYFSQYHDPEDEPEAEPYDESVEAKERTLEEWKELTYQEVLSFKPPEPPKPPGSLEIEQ
Sequence of MSK2(h) (O75676 whole entry): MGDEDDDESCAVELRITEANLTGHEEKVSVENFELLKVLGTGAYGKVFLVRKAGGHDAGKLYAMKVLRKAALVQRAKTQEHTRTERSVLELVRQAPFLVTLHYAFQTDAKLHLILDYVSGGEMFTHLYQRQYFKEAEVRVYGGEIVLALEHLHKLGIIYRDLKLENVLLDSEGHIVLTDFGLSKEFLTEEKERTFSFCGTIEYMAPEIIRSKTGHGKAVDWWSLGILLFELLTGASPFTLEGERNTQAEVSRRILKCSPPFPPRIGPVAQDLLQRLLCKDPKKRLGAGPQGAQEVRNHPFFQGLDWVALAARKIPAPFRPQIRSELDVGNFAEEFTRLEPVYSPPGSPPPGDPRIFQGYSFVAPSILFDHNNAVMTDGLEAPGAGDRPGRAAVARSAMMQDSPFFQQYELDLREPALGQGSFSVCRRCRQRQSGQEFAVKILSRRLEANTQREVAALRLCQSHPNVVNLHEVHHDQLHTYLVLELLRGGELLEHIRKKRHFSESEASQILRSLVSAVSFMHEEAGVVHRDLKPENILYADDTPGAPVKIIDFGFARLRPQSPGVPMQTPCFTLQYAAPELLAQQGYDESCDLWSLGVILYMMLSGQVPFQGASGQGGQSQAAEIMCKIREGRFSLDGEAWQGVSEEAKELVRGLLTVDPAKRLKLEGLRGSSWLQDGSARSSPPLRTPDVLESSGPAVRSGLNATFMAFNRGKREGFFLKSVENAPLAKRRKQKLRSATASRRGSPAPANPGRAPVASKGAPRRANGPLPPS
Sequence of PDGFRβ(h) (P09619 33-1106): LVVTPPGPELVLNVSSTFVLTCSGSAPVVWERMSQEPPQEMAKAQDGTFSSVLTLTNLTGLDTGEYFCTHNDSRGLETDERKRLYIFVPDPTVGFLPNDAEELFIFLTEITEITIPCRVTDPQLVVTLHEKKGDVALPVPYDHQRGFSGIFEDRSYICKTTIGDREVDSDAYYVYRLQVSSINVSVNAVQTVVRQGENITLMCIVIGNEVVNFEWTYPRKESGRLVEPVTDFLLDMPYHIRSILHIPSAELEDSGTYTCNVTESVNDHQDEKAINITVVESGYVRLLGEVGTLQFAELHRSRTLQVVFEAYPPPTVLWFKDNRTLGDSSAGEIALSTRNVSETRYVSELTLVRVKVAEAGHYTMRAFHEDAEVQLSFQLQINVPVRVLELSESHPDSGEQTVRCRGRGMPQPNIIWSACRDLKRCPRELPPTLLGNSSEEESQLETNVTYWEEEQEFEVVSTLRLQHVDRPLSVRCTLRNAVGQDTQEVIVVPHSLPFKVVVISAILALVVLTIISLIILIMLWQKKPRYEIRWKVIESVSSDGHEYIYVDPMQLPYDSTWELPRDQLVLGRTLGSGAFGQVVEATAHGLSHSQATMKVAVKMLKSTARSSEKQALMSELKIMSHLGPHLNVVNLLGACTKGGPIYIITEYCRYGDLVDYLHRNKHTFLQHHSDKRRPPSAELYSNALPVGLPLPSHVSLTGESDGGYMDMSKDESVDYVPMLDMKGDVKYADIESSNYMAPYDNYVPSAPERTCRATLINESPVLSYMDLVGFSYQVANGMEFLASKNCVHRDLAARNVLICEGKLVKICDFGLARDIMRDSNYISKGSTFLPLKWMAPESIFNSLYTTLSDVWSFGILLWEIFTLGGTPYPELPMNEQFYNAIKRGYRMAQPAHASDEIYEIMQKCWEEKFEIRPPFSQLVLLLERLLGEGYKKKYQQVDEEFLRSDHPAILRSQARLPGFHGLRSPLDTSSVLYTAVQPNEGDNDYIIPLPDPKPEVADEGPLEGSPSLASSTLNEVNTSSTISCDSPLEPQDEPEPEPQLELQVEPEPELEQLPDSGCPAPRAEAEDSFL
Sequence of CaMKIIβ(h) (Q13554 whole entry): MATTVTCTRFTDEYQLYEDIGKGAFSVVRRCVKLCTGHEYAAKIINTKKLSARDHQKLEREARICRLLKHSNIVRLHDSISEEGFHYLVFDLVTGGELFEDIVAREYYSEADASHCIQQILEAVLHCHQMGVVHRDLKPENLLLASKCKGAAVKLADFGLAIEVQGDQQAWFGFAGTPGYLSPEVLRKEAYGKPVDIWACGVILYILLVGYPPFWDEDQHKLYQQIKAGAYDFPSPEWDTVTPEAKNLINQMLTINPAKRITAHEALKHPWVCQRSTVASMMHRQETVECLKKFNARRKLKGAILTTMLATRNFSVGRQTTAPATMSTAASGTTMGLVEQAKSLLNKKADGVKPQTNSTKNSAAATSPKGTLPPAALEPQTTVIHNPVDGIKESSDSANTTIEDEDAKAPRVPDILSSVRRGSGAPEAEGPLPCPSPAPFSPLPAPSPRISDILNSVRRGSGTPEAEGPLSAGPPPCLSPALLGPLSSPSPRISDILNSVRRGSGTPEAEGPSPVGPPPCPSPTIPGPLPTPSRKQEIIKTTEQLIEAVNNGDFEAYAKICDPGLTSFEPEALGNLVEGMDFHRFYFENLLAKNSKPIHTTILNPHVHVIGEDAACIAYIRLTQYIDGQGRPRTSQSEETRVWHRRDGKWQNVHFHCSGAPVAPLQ
Sequence of MAPK1(h) (P27361 whole entry): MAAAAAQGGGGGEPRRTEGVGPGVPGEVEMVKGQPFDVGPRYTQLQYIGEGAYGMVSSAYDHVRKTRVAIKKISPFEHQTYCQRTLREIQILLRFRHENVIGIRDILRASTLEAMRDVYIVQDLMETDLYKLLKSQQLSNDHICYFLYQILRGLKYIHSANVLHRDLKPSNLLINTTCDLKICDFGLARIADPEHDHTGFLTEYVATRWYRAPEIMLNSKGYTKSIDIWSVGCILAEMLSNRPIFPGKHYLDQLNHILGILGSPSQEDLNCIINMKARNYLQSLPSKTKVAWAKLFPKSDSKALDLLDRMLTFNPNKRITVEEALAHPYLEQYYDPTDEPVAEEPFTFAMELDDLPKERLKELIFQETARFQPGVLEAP
Sequence of Fer(h) (P16591 whole entry): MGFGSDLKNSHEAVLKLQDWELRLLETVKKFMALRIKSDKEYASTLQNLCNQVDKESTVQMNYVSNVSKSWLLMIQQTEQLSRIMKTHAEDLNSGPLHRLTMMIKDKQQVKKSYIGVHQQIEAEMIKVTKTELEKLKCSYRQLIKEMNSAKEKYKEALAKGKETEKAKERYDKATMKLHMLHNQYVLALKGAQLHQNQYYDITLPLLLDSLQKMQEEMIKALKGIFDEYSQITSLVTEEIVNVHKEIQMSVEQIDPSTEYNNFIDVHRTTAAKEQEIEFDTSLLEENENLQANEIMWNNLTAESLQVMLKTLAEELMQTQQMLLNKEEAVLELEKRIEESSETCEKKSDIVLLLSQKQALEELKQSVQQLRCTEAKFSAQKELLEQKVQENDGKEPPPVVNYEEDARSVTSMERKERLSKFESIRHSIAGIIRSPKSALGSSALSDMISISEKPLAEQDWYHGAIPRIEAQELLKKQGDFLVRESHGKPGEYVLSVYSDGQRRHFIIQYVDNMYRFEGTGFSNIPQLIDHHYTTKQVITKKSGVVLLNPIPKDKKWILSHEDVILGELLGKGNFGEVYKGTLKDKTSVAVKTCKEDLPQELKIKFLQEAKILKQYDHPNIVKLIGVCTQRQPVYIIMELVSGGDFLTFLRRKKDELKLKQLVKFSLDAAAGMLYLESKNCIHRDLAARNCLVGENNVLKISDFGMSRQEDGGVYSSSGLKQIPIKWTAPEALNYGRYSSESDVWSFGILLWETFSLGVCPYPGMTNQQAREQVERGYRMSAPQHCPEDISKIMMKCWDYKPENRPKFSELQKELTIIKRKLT

Substance | activity at 100 µM (SGK(h)) [%] | activity at 100 µM (BrSK2(h)) [%] | activity at 100 µM (MAPK1(h)) [%] | % activity (Src(1-530)(h)) [%] | % activity (MSK2(h)) [%] | % activity (SGK(h); 100 μM) [%] | % activity (Fer(h)) [%] | % activity (PhKγ2(h)) [%] | % activity (SAPK2b(h)) [%] | % activity (BrSK2(h); 100 μM) [%] | % activity (FGFR2(h)) [%] | % activity (PDGFRβ(h)) [%] | % activity (CaMKIIβ(h)) [%] | % activity (Syk(h)) [%] | % activity (PAK5(h)) [%] | % activity (p70S6K(h)) [%] | % activity (CaMKIIγ(h)) [%] | % activity (MAPK1(h); 100 μM) [%]
H-YARAAARQARAKALARQLGVAA-OH [MMI-0100] | 128 | 129 | 108 | – | – | – | – | – | – | – | – | – | – | – | – | – | – | –
HRRIKAWLKKIKALARQLGVAA (Mammalian) [MMI-0500] | – | – | – | 21 | 14 | 2 | 196 | 16 | 42 | 84 | 12 | 40 | 3 | 5 | 125 | 3 | 3 | –
YARAAARQARAKALNRQLGVA (Mammalian) [MMI-0200] | – | – | – | 75 | 88 | – | 101 | 86 | 95 | – | 73 | 137 | 53 | 36 | 100 | 84 | 94 | 97
